Experimental data as given in US20230302148A1, “PHARMACEUTICAL COMPOSITION COMPRISING LONG-ACTING CONJUGATE OF TRIPLE GLUCAGON/GLP-1/GIP RECEPTOR AGONIST” (HANMI PHARM. CO., LTD., priority 2020, published 2023).
Bridges are numbered along the chain shown (N, C = ends). Where no end group is shown, it is not given here. [ ]: non-standard residue; d: D form. The star is where a group is joined. Acetyl(2-(4-imidazolyl)) = O=C(Cc1c[nH]cn1)*; Aib = CC(C)(N)C(=O)O

T1: human GIP receptor (human, UniProt P48546 22-466)
T1 sequence (looked up): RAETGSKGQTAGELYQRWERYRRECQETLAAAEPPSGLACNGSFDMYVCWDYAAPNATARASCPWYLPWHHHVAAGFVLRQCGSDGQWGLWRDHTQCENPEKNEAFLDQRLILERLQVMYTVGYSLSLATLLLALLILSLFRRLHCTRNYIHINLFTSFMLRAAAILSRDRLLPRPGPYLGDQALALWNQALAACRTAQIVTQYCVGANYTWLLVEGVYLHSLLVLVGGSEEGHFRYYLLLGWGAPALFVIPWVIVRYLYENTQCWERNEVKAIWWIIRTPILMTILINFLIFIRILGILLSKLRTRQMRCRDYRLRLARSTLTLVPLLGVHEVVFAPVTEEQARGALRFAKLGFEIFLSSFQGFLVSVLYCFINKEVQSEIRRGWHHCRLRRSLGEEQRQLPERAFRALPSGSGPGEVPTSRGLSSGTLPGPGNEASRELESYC


Assays:
Experiment in all cases: cell-based or functional assay
[1] = biological target: human GCG receptor (human, UniProt P47871 26-477)
human GCG receptor, sequence (P47871 26-477): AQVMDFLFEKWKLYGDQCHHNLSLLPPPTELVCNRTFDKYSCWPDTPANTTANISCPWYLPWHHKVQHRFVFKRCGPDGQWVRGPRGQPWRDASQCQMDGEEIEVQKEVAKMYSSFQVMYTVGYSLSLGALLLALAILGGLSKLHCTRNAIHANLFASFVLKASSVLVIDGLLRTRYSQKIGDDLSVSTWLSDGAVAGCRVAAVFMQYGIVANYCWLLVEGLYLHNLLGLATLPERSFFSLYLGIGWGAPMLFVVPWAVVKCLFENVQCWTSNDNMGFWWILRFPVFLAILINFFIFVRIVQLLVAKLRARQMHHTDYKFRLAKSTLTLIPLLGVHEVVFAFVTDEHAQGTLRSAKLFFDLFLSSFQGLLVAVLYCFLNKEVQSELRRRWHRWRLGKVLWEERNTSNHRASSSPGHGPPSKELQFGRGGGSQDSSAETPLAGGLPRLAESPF

[2] = biological target: T1, human GIP receptor
[3] = biological target: human GLP-1 receptor (human, UniProt P43220 24-463)

Binder	In vitro activity relative to native peptide (%) vs. Glucagon [1] [%]	In vitro activity relative to native peptide (%) vs. GIP [2] [%]	In vitro activity relative to native peptide (%) vs. GLP-1 [3] [%]
[Acetyl(2-(4-imidazolyl))]GQGTFTSDLSKQMDSEAQQLFIEWLKNGGPSSGAPPPSHG [triple agonist of SEQ ID NO: 16]	< 0.1	< 0.1	2.1
Y[Aib]QGTFTSDYSKALDEKAAKEFVNWLLDHHPSSGQPPPSC (bridge 16-20) [triple agonist of SEQ ID NO: 98]	8.2	47.1	28.1
H[Aib]QGTFTSDVSKYLDGQAAQEFVAWLLAGGGPSSGAPPPSC [triple agonist of SEQ ID NO: 10]	< 0.1	< 0.1	46
{Acetyl(2-(4-imidazolyl))}-[Aib]QGTFTSDYSKYLDEKRQKEFVNWLLAQC (bridge 15-19) [triple agonist of SEQ ID NO: 86]	0.4	0.2	28.4
{Acetyl(2-(4-imidazolyl))}-[Aib]EGTFTSDYSIAMDEIHQKDFVDWLLAEKC (bridge 15-19) [triple agonist of SEQ ID NO: 91]	16.8	0.3	31.9
{Acetyl(2-(4-imidazolyl))}-[Aib]EGTFTSDYSIAMDEIHQKDFVNWLLAQKC (bridge 15-19) [triple agonist of SEQ ID NO: 90]	< 0.1	< 0.1	7.4
{Acetyl(2-(4-imidazolyl))}-[Aib]QGTFTSDYSIAMDEIHQKDFVNWLLNTKC (bridge 15-19) [triple agonist of SEQ ID NO: 94]	< 0.1	< 0.1	0.5
Y[Aib]QGTFTSDYSKALDEKAAKDFVNWLLDQHPSSGQPPPSC (bridge 16-20) [triple agonist of SEQ ID NO: 102]	29.5	58	23.3
Y[Aib]QGTFTSDYSKYLDEKRAKEFVQWLLCHHPSSGQPPPS (bridge 16-20) [triple agonist of SEQ ID NO: 95]	0.4	< 0.1	2.1
Y[Aib]QGTFTSDYSKYLDECRAKEFVQWLLDHHPSSGQPPPS (bridge 16-20) [triple agonist of SEQ ID NO: 21]	267	22.7	17.8
Y[Aib]QGTFTSDYSKYLDEKRAKEFVQWLLDHCPSSGQPPPS (bridge 16-20) [triple agonist of SEQ ID NO: 96]	195	5.2	34.4
Y[Aib]QGTFTSDYSKALDEKAAKEFVNWLLDQHPSSGQPPPSC (bridge 16-20) [triple agonist of SEQ ID NO: 101]	13.9	40.1	23.2
{Acetyl(2-(4-imidazolyl))}-[Aib]QGTFTSDYSIAMDEIHQKDFVNWLLAQKC (bridge 15-19) [triple agonist of SEQ ID NO: 92]	< 0.1	0.4	0.8
[Acetyl(2-(4-imidazolyl))]GEGTFTSDLSKYLDSRRQQLFVQWLKAGGPSSGAPPPSHG [triple agonist of SEQ ID NO: 11]	< 0.1	< 0.1	1.4
Y[Aib]QGTFTSDYSKALDEKAAKDFVNWLLDHHPSSGQPPPSC (lactam 16-20) [triple agonist of SEQ ID NO: 99]	14.9	57.7	20.9
Y[Aib]QGTFTSDYSKYLDECRAKEFVQWLLAQKGKKNDWKHNIT (bridge 16-20) [triple agonist of SEQ ID NO: 23]	9.3	< 0.1	4.01
H[Aib]QGTFTSDVSSYLDGQAQKEFIAWLVKGC [triple agonist of SEQ ID NO: 2]	< 0.1	< 0.1	5.9
{Acetyl(2-(4-imidazolyl))}-[Aib]QGTFTSDYSKYLDEKRQKEFVNWLLAQKC (bridge 15-19) [triple agonist of SEQ ID NO: 93]	0.3	0.7	5.7
Y[Aib]QGTFTSDYSKALDEKAAKEFVQWLLDQHPSSGQPPPSC (bridge 16-20) [triple agonist of SEQ ID NO: 100]	12.7	118	42.2
[Acetyl(2-(4-imidazolyl))]GQGTFTSDLSKQMDEERAREFIEWLLAQKPSSGAPPPSHG [triple agonist of SEQ ID NO: 17]	< 0.1	< 0.1	0.2
{Acetyl(2-(4-imidazolyl))}-[Aib]QGTFTSDYSKYLDEKRQKEFVQWLLNTKC (bridge 15-19) [triple agonist of SEQ ID NO: 88]	0.3	< 0.1	9.6
Y[Aib]QGTFTSDYSKCLDEKRAKEFVQWLLDHHPSSGQPPPS (bridge 16-20) [triple agonist of SEQ ID NO: 22]	140	59.7	20.1
[Acetyl(2-(4-imidazolyl))]GQGTFTSDLSIQYDSEHQRDFIEWLKDTGPSSGAPPPSHG [triple agonist of SEQ ID NO: 19]	< 0.1	< 0.1	< 0.1
{Acetyl(2-(4-imidazolyl))}-[Aib]QGTFTSDYSKYLDEKRQKEFVQWLLDTKC (bridge 15-19) [triple agonist of SEQ ID NO: 89]	0.7	< 0.1	7.1
[Acetyl(2-(4-imidazolyl))]GEGTFISDLSKYMDEQAVQLFVEWLMAGGPSSGAPPPSHG [triple agonist of SEQ ID NO: 12]	< 0.1	< 0.1	0.4
[Acetyl(2-(4-imidazolyl))]GQGTFTSDLSIQYEEEAQQDFVEWLKDTGPSSGAPPPSHG [triple agonist of SEQ ID NO: 20]	< 0.1	< 0.1	< 0.1
[Acetyl(2-(4-imidazolyl))]GQGTFTSDLSKQMDSERAREFIEWLKNTGPSSGAPPPSHG [triple agonist of SEQ ID NO: 18]	< 0.1	< 0.1	< 0.1
[Acetyl(2-(4-imidazolyl))]GQGTFTSDYSIQLDEIAVRDFVEWLKNGGPSSGAPPPSHG [triple agonist of SEQ ID NO: 14]	< 0.1	< 0.1	28
{Acetyl(2-(4-imidazolyl))}-[Aib]QGTFTSDYSIAMDEIHQKDFVNWLLNTC (bridge 15-19) [triple agonist of SEQ ID NO: 87]	< 0.1	< 0.1	0.9
